Reference: publication doi:10.1101/2021.04.06.21255004

Legend:
[1] = target: Endothelial nitric oxide synthase (Homo sapiens*) (UniProt P29474)
[2] = target: purified human alpha globin (human) (UniProt P69905); test: BLI
Sequence of purified human alpha globin (human) (P69905 whole entry): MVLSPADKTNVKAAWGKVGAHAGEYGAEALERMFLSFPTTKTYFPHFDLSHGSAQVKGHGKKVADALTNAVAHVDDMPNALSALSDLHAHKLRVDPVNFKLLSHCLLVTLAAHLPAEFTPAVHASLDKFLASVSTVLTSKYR

Sequence of Endothelial nitric oxide synthase (Homo sapiens*) (P29474 66-492): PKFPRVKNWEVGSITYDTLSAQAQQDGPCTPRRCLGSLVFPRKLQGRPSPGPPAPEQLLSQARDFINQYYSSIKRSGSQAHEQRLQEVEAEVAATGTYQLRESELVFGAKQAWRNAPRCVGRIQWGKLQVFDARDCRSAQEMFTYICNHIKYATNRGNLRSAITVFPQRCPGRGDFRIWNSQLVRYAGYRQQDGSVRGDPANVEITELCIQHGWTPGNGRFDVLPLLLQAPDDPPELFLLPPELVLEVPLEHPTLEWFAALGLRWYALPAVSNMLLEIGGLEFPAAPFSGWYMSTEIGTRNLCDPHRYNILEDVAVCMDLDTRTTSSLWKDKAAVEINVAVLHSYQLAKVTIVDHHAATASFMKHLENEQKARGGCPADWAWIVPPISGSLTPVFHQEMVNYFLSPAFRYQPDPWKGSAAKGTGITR
Sequence of recombinant human eNOS oxidase domain (domain or fragment) (P29474 2-1203): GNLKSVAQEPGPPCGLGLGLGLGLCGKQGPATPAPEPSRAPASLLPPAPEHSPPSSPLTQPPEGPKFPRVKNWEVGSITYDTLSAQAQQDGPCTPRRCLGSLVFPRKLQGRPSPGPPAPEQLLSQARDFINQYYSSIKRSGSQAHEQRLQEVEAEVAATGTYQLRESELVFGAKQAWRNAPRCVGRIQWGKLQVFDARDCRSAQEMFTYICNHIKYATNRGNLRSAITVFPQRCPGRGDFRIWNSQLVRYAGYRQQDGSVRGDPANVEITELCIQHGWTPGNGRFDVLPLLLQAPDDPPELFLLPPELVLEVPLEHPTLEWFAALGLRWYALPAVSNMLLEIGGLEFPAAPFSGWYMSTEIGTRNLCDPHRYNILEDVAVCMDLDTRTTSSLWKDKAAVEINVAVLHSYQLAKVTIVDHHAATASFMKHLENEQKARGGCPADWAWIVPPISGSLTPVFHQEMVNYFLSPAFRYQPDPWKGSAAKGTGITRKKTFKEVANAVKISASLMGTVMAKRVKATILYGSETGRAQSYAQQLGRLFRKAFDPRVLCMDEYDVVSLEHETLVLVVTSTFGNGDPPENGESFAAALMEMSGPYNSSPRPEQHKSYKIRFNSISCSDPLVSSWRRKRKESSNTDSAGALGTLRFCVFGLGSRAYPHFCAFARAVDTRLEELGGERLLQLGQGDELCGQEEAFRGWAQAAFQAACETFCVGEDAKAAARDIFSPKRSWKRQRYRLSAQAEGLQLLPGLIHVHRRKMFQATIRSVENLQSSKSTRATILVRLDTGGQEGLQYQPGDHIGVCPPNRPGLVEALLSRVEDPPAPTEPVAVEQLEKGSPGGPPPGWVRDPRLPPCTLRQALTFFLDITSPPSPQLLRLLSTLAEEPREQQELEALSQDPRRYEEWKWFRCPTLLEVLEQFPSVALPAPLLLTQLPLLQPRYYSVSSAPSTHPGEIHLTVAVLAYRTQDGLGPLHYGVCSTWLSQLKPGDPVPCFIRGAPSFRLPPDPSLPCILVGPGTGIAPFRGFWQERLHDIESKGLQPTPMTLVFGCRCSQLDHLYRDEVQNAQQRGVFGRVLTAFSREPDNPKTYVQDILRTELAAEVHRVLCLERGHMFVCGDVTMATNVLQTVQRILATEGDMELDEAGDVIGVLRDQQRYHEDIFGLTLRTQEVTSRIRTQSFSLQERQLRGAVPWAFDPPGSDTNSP
Sequence of Alpha globin (P69905 2-142): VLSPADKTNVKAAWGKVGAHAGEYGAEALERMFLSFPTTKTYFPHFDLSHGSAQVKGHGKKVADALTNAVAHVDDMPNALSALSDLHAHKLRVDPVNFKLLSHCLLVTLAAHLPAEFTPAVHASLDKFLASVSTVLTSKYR

Kd [1]	Kd [2]	Substance
1300 nM	–	Alpha globin (from UniProt P69905)
–	1310 nM	recombinant human eNOS oxidase domain (domain or fragment)
